Earlier results in publication PMC7801465.

Target: SARS-CoV-2 spike (SARS-CoV-2) (UniProt P0DTC2)

Substance: Basigin (from UniProt P35613)
- Kd: 185 nM
